According to patent US7553667B2, “Regulation of gene expression using chromatin remodelling factors” (Her Majesty the Queen in right of Canada as represented by …, priority 2002, dated 2009):

T1: GST-HDA19 (Arabidopsis thaliana, UniProt O22446)
T1 construct: made in house; host or cells: E. coli BL21-CodonPlus (DE3)-RP
T1 sequence (O22446 1-501): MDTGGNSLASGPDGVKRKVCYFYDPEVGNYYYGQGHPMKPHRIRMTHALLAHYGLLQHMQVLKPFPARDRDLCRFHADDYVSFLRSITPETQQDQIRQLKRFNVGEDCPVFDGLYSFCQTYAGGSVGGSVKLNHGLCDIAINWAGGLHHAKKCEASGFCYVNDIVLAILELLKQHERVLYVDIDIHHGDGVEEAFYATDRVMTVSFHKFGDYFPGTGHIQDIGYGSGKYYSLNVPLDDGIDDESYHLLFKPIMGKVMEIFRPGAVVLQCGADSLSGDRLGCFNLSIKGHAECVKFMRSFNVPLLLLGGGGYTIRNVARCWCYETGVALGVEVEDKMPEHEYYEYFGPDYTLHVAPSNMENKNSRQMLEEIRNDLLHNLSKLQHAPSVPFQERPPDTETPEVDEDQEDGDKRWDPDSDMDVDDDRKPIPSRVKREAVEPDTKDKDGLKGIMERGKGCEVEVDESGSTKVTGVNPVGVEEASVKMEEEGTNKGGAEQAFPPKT

T2: GST-Gcn5 (Arabidopsis thaliana, UniProt Q9AR19)
T2 construct: made in house; host or cells: E. coli BL21-CodonPlus (DE3)-RP
T2 sequence (Q9AR19 1-568): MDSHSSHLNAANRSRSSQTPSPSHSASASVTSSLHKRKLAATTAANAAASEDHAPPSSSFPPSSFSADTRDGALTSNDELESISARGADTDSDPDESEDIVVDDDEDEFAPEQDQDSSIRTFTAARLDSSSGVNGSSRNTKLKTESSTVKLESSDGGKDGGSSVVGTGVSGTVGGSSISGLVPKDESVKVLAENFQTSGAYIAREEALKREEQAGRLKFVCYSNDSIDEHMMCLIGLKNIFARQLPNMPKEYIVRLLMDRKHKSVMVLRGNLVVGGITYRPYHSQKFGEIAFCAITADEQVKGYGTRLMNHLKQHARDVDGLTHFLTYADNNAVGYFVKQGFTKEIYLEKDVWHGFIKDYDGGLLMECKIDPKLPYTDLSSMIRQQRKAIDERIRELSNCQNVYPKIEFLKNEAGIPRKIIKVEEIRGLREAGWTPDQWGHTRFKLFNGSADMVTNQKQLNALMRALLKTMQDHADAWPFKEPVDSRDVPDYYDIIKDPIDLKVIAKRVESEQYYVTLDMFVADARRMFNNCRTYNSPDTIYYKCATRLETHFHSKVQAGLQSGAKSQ

T3: Gcn5 (Arabidopsis thaliana, UniProt Q9AR19)
T3 construct: expressed in transfected cells; host or cells: Saccharomyces cerevisiae MaV203
T3 sequence (Q9AR19 1-568): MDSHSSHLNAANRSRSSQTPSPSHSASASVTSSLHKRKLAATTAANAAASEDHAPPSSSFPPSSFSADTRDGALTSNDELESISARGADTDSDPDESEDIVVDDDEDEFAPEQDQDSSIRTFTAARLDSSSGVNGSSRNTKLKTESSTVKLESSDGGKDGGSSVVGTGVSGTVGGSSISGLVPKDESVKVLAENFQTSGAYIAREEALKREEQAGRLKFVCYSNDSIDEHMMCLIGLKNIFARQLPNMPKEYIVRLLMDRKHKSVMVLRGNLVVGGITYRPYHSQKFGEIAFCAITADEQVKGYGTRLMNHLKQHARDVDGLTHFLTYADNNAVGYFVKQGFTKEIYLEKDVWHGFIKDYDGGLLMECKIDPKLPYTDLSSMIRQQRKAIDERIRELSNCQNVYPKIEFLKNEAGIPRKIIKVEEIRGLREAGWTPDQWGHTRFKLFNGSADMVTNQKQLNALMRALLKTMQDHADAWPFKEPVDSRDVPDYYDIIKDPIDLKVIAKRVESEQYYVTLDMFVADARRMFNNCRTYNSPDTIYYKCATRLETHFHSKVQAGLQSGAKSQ


What was measured:
[1] = target: T1, GST-HDA19; experiment: GST pulldown affinity assay of BnSCL1 and mutants with GST-HDA19; type: binding; settings: [35S]Met-labeled in vitro translated protein
Method: The open reading frame (ORF) of the HDA19 was PCR amplified, sequence analyzed, inserted in-frame with the GST (glutathione s-transferase) into the vector pGEX-6P-2 (Amersham Pharmacia), and transformed into E. coli BL21-CodonPlus (DE3)-RP competent cells (Stratagene) as previously described (Gao et al., 2003). The recombinant HDA19 protein was expressed and purified under non-denaturing conditions as described by Gao et al, 2002). The GST-HDA19 fusion protein was analyzed by western blotting with rabbit anti-GST-Pi polyclonal antibody (Chemicon) using ECL Western blotting analysis system (Amersham Pharmacia).
The entire coding region of BnSCL1 and four fragments, BnSCL1^1-358, BnSCL1^1-261, BnSCL1^1-217, and BnSCL1^1-145 […], respectively, were amplified by PCR and cloned into the HindIII and XhoI sites of the expression vector pET-28b (Novagen) in-frame with the His-Tag sequence. […]
The TnT-Quick Coupled Transcription/Translation System (Promega) was used to produce the full-length BnSCL1 protein and the truncated mutants ΔBnSCL1^1-358, ΔBnSCL1^1-261, ΔBnSCL1^1-217 and ΔBnSCL1^1-145 labeled with [^35S]methionine as previously described (Gao et al., 2003). In vitro protein interaction was detected with GST pulldown affinity assays as described by Ahmad et al. (1999) and Gao et al., (2003).

[2] = system: lacZ reporter gene driven by a promoter containing GAL4 DNA binding sites; experiment: Transactivation assay of BnSCL1 in yeast; type: cell-based, yeast MaV203
Excerpt: MaV203 yeast cells expressing the lacZ reporter gene driven by a promoter containing GAL4 DNA binding sites (GibcoL BRL) were transformed with the […]. These vectors were constructed by ligating the PCR-amplified fragments, ΔBnSCL1^1-358, ΔBnSCL1^1-261, ΔBnSCL1^1-217, ΔBnSCL1^1-145, ΔBnSCL1^146-358 and ΔBnSCL1^218-434 and the entire coding region of BnSCL1, respectively, into the SalI and NotI sites of the vector pDBLeu (GibcoL BRL) in-frame with the GAL4 DB sequence. The oligonucleotide primers for the amplification were the same as those used for the in vivo protein interaction assays. The β-galactosidase activity was measured using CPRG according to the manufacturer's instructions (GibcoL BRL). In addition to the yeast strains A, B and C, the yeast strains D (GibcoL BRL) that contain plasmid pairs expressing fusion protein with strong interaction strength was used as controls.

[3] = target: T1, GST-HDA19; experiment: GST pulldown affinity assay of bnKCP1 and mutants with GST-HDA19; type: binding; settings: [35S]Met-labeled in vitro translated protein
Excerpt: (§1) The full coding regions of the Arabidopsis HAT, Gcn5 (Dr. M. Thomashow, Michigan State University, MI), and HDA19 (Accession # AF195547) were PCR amplified, sequence analyzed and inserted in-frame with the GST (glutathione s-transferase) into the SalI and NotI sites of vector pGEX-6P-2 (Amersham Pharmacia). The forward used for the amplification of Gcn5 was:
(§2) Recombinant pGEX-6P-2 plasmids were used to transform E. coli BL21-CodonPlus (DE3)-RP competent cells (Stratagene). Expression and purification under non-denaturing conditions were carried out as described by Gao et al. (Gao, M.-J. et al., 2002). The GST-Gcn5 and GST-HDA19 fusion proteins were analyzed by 7.5% SDS-PAGE (SDS-polyacrylamide gel electrophoresis) and western blotting with rabbit anti-GST-Pi polyclonal antibody (Chemicon) using ECL Western blotting analysis system (Amersham Pharmacia).
(§3) Full-length bnKCP1 and truncated mutant bnKCP1^1-160 and bnKCP1^1-80 proteins labeled with [^35S]methionine were produced using TNT-Quick Coupled Transcription/Translation System (Promega) according to the manufacture's instructions, with some modifications. A total of 1 μl of RNase inhibitor (GibcoL BRL) and 1 μl of protease inhibitors set (Roche) were added to the lysate reaction. After incubation for 90 min at 30° C., RNase A was added to the reaction to a final concentration of 0.2 mg/ml and incubated for 5 min at the same temperature.
In vitro protein interaction was detected with GST pulldown affinity assays as described by Ahmad et al. (1999) with some modifications. Briefly, 6 μg of GST or 4 μg of GST-fusion protein was incubated with 5 μl of [^35S]Met-labeled translation mixture in 200 μl of bead-binding buffer (50 mM K-phosphate, pH 7.6, 450 mM KCl, 10 mM MgCl2, 10% glycerol, 1% Triton X-100, 1% BSA and 1 μl of diluted 1:12 protease inhibitors set) for 1 h at room temperature. After incubation, 20 μl of 50% slurry of glutathione-Sepharose beads containing 10 mg/ml of BSA and 4 μg of EtBr was mixed with the reaction mixture followed by gentle rotation for 1 h at 4° C. After washing six times with 1.2 ml of bead-binding buffer without BSA and EtBr but containing 12 μl of protease inhibitors set (Roche), the bound proteins were eluted with 30 μl of 2×SDS loading buffer, boiled for 2 min and analyzed by 12% SDS-PAGE. After electrophoresis, the gels were dried, treated with Amplify (Amersham Pharmacia) and subjected to fluorography.

[4] = target: T2, GST-Gcn5; experiment: GST pulldown affinity assay of bnKCP1 and mutants with GST-Gcn5; type: binding; settings: [35S]Met-labeled in vitro translated protein
Excerpt: as §1, §2, §3
In vitro protein interaction was detected with GST pulldown affinity assays as described by Ahmad et al. (1999) with some modifications. […] After washing six times with 1.2 ml of bead-binding buffer without BSA and EtBr but containing 12 μl of protease inhibitors set (Roche), the bound proteins were eluted with 30 μl of 2×SDS loading buffer, boiled for 2 min and analyzed by 12% SDS-PAGE. […]

[5] = target: T3, Gcn5; experiment: Yeast two-hybrid interaction of bnKCP1 with Gcn5 (HIS3, URA3, lacZ reporters); type: cell-based; settings: MaV203 yeast, Gcn5 fused to Gal4 DB, data not shown
Excerpt: To reassess the interaction of bnKCP1 with Gcn5 in vivo, the ORF of the Arabidopsis Gcn5 was fused to the yeast Gal4 DNA binding domain in pDBLeu vector and then used to transform yeast MaV203 cells expressing bnKCP1 fused to the yeast Gal4 activation domain in pPC86 vector.

[6] = system: lacZ reporter gene driven by promoter containing GAL4 DNA binding sites; experiment: Transactivation assay of bnKCP1 using yeast one-hybrid system; type: cell-based, yeast MaV203
Excerpt: Effector plasmids pDBLeu-bnKCP1^1-160, pDBLeu-bnKCP1^1-80, pDBLeu-bnKCP1^81-215 and pDBLeu-bnKCP1 were constructed by ligating the PCR-amplified fragments ΔbnKCP1^1-160, ΔbnKCP1^1-80, ΔbnKCP1^81-215 and the coding region of bnKCP1 into the SalI/NotI sites of pDBLeu vector (GibcoL BRL) in-frame with the GAL4 DB sequence. The oligonucleotide primers for PCR amplification were as follows: […]
The three reporter genes, lacZ, HIS3 and URA3, which were chromosomally integrated in the genome of MaV203 yeast cells were driven by unrelated promoters containing GAL4 DNA binding sites (GibcoL BRL). For transient assays, the effector constructs or the negative control vector pDBLeu were transferred to the MaV203 yeast cells. The β-galactosidase activity was measured using CPRG (chlorophenol red-β-D-galactopyranoside) according to the manufacturer's instructions (GibcoL BRL). The MaV203 cells containing plasmids pDBLeu-HDA19 and pPC86-bnKCP1 were used as the positive control. In addition, we used three yeast control strains A, B, and C (GibcoL BRL), which were developed to contain plasmid pairs expressing fusion proteins with none, weak and moderately strong protein-protein interaction strength, respectively. Transient Expression of the GUS-bnCKP1 Fusion Protein

Molecule	in vitro binding to GST-HDA19 [1]	transactivation of reporter genes HIS3 and URA3 ([2]; data not shown)	increase of β-galactosidase activity ([2]; relative to vector pDBLeu alone or yeast control strain A)	in vitro binding to GST-HDA19 [3]	in vitro binding to GST-Gcn5 [4]	induction of reporter genes HIS3, URA3 and lacZ with Gcn5, compared with HDA19 [5]	activation of reporter genes HIS3 and URA3 ([6]; data not shown)	stimulation of β-galactosidase activity ([6]; relative to GAL4 DB alone or yeast control strain A)
BnSCL1: Brassica napus SCARECROW-like protein 1, SEQ ID NO:81 (protein, left off: large carriers) MKLQASSPQDNQPSNTTNNSTDSNHLSMDEHAMRSMDWDSIMKELEVDDDSAPYQLQPSSFNLPVFPDIDSSDVYPGPNQITGYGFNSLDSVDNGGFDYIEDLIRVVDCIESDELHLAHVVLSQLNQRLQTSAGRPLQRAAFYFKEALGSLLTGTNRNQLFSWSDIVQKIRAIKEFSGISPIPLFSHFTANQAILDSLSSQSSSPFVHVVDFEIGFGGQYASLMREIAEKSANGGFLRVTAVVAEDCAVETRLVKENLTQFAAEMKIRFQIEFVLMKTFEILSFKAIRFVDGERTVVLISPAIFRRVIGIAEFVNNLGRVSPNVVVFVDSEGCTETAGSGSFRREFVSAFEFYTMVLESLDAAAPPGDLVKKIVETFLLRPKISAAVETAANRRSAGQMTWREMLCAAGMRPVQLSQFADFQAECLLEKAQVRGFHVAKRQGELVLCWHGRALVATSAWRF	bound	strongly transactivated	approximately 20 fold					
bnKCP1: B. napus KID-containing protein 1, 215 amino acid protein interacting with HDA19 (SEQ ID NO:71) (protein, left off: large carriers) MAGGGPTFSIELSAYGSDLPTDKASGDIPNEEGSGLSRVGSGIWSGRTVDYSSESSSSIGTPGDSEEEDEESEEDNDEEELGLASLRSLEDSLPSKGLSSHYKGKSKSFGNLGEIGSVKEVPKQENPLNKKRRLQIYNKLARKSFYSWQNPKSMPLLPVHEDNDDEEGDDGDLSDEERGGDVLARRPSFKNRALKSMSCFALSDLQEEEEEEEDE				bound	bound	relatively lower level	modestly activated	about 8 fold
